B1: Ferroportin (Mus musculus), Q9JHI9 (parent)
chain: MTKARDQTHQEGCCGSLANYLTSAKFLLYLGHSLSTWGDRMWHFAVSVFLVELYGNSLLLTAVYGLVVAGSVLVLGAIIGDWVDKNARLKVAQTSLVVQNVSVILCGIILMMVFLHKNELLTMYHGWVLTVCYILIITIANIANLASTATAITIQRDWIVVVAGENRSRLADMNATIRRIDQLTNILAPMAVGQIMTFGSPVIGCGFISGWNLVSMCVEYFLLWKVYQKTPALAVKAALKVEESELKQLTSPKDTEPKPLEGTHLMGEKDSNIRELECEQEPTCASQMAEPFRTFRDGWVSYYNQPVFLAGMGLAFLYMTVLGFDCITTGYAYTQGLSGSILSILMGASAITGIMGTVAFTWLRRKCGLVRTGLFSGLAQLSCLILCVISVFMPGSPLDLSVSPFEDIRSRFVNVEPVSPTTKIPETVFTTEMHMSNMSNVHEMSTKPIPIVSVSLLFAGVIAARIGLWSFDLTVTQLLQENVIESERGIINGVQNSMNYLLDLLHFIMVILAPNPEAFGLLVLISVSFVAMGHLMYFRFAQKTLGNQIFVCGPDEKEVTDENQPNTSVV

Variants of: B1
Details: with jak2_human JAK2, O60674
Sequence of jak2_human JAK2, O60674 (O60674 whole entry): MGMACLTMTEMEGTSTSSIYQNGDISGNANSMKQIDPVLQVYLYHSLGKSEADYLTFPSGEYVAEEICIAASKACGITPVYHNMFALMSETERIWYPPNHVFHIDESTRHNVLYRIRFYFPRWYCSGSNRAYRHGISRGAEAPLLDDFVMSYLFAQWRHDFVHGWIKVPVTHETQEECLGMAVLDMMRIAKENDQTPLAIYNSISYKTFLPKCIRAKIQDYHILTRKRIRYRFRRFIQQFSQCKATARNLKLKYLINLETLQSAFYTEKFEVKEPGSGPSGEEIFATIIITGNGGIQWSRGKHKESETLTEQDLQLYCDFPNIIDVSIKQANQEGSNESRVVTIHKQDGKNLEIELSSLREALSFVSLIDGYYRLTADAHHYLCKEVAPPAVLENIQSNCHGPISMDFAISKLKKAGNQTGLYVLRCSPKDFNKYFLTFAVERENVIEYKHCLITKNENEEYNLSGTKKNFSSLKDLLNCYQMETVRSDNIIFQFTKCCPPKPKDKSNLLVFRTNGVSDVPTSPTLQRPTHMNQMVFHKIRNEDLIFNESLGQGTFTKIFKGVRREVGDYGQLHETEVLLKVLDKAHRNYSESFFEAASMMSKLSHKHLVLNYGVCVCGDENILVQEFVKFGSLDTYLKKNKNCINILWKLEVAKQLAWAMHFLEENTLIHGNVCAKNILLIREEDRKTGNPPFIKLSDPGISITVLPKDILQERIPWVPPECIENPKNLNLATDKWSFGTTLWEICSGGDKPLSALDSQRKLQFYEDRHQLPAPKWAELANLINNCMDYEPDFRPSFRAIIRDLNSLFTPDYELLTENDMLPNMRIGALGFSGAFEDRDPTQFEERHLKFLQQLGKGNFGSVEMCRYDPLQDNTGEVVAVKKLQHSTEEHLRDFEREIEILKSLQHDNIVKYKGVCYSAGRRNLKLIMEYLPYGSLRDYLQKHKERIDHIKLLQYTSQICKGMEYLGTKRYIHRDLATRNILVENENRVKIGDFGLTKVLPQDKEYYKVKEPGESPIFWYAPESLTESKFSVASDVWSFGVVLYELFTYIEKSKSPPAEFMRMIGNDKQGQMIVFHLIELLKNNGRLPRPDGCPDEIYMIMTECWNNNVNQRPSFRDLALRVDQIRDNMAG

effect of a mutation on the interaction | Variant
disrupting interaction | MTKARDQTHQEGCCGSLANYLTSAKFLLYLGHSLSTWGDRMWHFAVSVFLVELYGNSLLLTAVYGLVVAGSVLVLGAIIGDWVDKNARLKVAQTSLVVQNVSVILCGIILMMVFLHKNELLTMYHGWVLTVCYILIITIANIANLASTATAITIQRDWIVVVAGENRSRLADMNATIRRIDQLTNILAPMAVGQIMTFGSPVIGCGFISGWNLVSMCVEYFLLWKVYQKTPALAVKAALKVEESELKQLTSPKDTEPKPLEGTHLMGEKDSNIRELECEQEPTCASQMAEPFRTFRDGWVSYYNQPVFLAGMGLAFLYMTVLGFDYITTGYAYTQGLSGSILSILMGASAITGIMGTVAFTWLRRKCGLVRTGLFSGLAQLSCLILCVISVFMPGSPLDLSVSPFEDIRSRFVNVEPVSPTTKIPETVFTTEMHMSNMSNVHEMSTKPIPIVSVSLLFAGVIAARIGLWSFDLTVTQLLQENVIESERGIINGVQNSMNYLLDLLHFIMVILAPNPEAFGLLVLISVSFVAMGHLMYFRFAQKTLGNQIFVCGPDEKEVTDENQPNTSVV [C326Y]
